Measurements: EP4786494A1 (Nanjing Leads Biolabs Co., Ltd., dated 2026)

Legend:
[1] = biological target: T1, human FGFR3 protein (Sino Biological, Cat. No. 16486-H08H) (human, UniProt P22607-2 23-377); test: ELISA, FGFR3 coated
T1 construct: Bought recombinant protein; construct not described
T1 sequence (looked up): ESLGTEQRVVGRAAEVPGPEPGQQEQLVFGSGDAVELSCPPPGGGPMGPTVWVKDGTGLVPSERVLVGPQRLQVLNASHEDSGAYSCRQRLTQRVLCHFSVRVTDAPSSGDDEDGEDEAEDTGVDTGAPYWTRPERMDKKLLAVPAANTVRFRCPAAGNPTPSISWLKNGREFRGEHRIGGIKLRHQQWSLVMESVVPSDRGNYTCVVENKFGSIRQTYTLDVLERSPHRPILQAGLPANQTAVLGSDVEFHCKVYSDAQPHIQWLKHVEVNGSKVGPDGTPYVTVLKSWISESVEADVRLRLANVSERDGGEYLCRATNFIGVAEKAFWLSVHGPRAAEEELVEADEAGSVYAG

[2] = biological target: T2, human FGFR4 protein (Sino Biological, Cat. No. 10538-H08H) (human, UniProt P22455 22-369); test: ELISA, FGFR4 coated
T2 construct: Bought recombinant protein; construct not described

[3] = biological target: T3, human FGFR1 protein (ACRO Biosystems, Cat. No. FG1-H5223) (human, UniProt P11362-14 22-285); test: ELISA, FGFR1 coated
T3 construct: Bought recombinant protein; construct not described
T3 sequence (looked up): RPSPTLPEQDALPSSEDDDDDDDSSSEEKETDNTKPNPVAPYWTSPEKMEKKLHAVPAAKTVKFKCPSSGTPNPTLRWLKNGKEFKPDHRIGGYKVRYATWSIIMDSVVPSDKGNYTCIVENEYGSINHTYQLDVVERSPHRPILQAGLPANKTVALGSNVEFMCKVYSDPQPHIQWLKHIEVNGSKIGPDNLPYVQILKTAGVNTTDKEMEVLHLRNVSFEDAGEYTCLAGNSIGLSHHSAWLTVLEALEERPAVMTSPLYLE

[4] = biological target: T4, human FGFR2-his protein (huFGFR2-his) (human); test: ELISA screen of hybridoma subclones on human FGFR2-his
T4 construct: Extracellular region of human FGFR2 (NP_001138385.1) with a 6xHis tag; also called human FGFR2 extracellular protein
T4 chain: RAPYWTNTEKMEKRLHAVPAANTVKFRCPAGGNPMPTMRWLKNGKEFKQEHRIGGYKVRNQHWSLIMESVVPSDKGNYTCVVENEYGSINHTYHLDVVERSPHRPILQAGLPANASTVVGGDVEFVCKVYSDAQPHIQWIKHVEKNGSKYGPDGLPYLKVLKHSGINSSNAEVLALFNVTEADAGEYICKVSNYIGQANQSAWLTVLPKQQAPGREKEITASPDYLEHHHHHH

B1: antibody D12D8 (murine chimeric anti-FGFR2 antibody) (antibody, human IgG1, kappa, V domains shown)
VH: QVQLQQSGAELARPGASVKLSCKASGYTFTNYGISWVKQRTGQGLEWIGEIYPRSGNTYYNEKFKGKATLTADKSSSTAYMELRSLTSEDSAVYFCARGDYSNSDYWGQGTTLTVSS
VL: DIQMTQTTSSLSASLGDRVTISCRASQDITDHLNWYQQKPDGTVKLLIYYTSRLHSGVPSRFSGSGSGTDYSLTISNLEQEDIATYFCQQGNTLPRTFGGGTKLEIKR
binding result [1]: no binding
binding result [2]: no binding
binding result [3]: no binding

B2: bemarituzumab (antibody, human IgG1, kappa, V domains shown)
VH: QVQLVQSGAEVKKPGSSVKVSCKASGYIFTTYNVHWVRQAPGQGLEWIGSIYPDNGDTSYNQNFKGRATITADKSTSTAYMELSSLRSEDTAVYYCARGDFAYWGQGTLVTVSS
VL: DIQMTQSPSSLSASVGDRVTITCKASQGVSNDVAWYQQKPGKAPKLLIYSASYRYTGVPSRFSGSGSGTDFTFTISSLQPEDIATYYCQQHSTTPYTFGQGTKLEIKR
binding result [1]: no binding
binding result [2]: no binding
binding result [3]: no binding

B3: mouse antibody F3F8 (antibody, V domains shown)
VH: QVTLKESGPGILQSSQTLSLTCSFSGFSLSTSGMGVSWIRQPSGKGLEWLAHIYWDNDKRYNPSLKSRLTISKDTSRNQVFLKITSVDTADTATYYCTRSDSSGSFDYWGQGTTLTVSS
VL: DIQMTQTTSSLSASLGDRVTISCRASQDISNYLNWYQQKPDGTVKFLIYYTSTLHSGVPSRFSGSGSGTDYSLTISNLEQEDIATYFCQQGNTLPWTFGGGTKLEIK
notes: Antibody as produced by the hybridoma
binding result [4]: binds

B4: antibody F3F8 (murine chimeric anti-FGFR2 antibody) (antibody, human IgG1, kappa, V domains shown)
VH: QVTLKESGPGILQSSQTLSLTCSFSGFSLSTSGMGVSWIRQPSGKGLEWLAHIYWDNDKRYNPSLKSRLTISKDTSRNQVFLKITSVDTADTATYYCTRSDSSGSFDYWGQGTTLTVSS
VL: DIQMTQTTSSLSASLGDRVTISCRASQDISNYLNWYQQKPDGTVKFLIYYTSTLHSGVPSRFSGSGSGTDYSLTISNLEQEDIATYFCQQGNTLPWTFGGGTKLEIKR
binding result [1]: no binding
binding result [2]: no binding
binding result [3]: no binding

B5: mouse antibody D12D8 (antibody, V domains shown)
VH: QVQLQQSGAELARPGASVKLSCKASGYTFTNYGISWVKQRTGQGLEWIGEIYPRSGNTYYNEKFKGKATLTADKSSSTAYMELRSLTSEDSAVYFCARGDYSNSDYWGQGTTLTVSS
VL: DIQMTQTTSSLSASLGDRVTISCRASQDITDHLNWYQQKPDGTVKLLIYYTSRLHSGVPSRFSGSGSGTDYSLTISNLEQEDIATYFCQQGNTLPRTFGGGTKLEIK
notes: as for B3
binding result [4]: binds

B6: mouse antibody E3A1 (antibody, V domains shown)
VH: QVTLKESGPGILQSSQTLSLTCSFSGFSLTTSGMGVSWIRQPSGKGLEWLAHIYWDDDKRYNPSLKSRLTISKDTSRNQVFLKITSVDTADTATYYCAGCDSSGSFDYWGQGTTLTVSS
VL: DIQMTQTTSSLSASLGDRVTITCRASQDISNYLNWYQQKPDGTVKLLIYYRSRLHSGVPSRFSGSGSGPEYSLTISNLEQEDIATYFCQQGNTLPWTFGGGTKLEIK
notes: as for B3
binding result [4]: binds

B7: antibody E3A1 (murine chimeric anti-FGFR2 antibody) (antibody, human IgG1, kappa, V domains shown)
VH: QVTLKESGPGILQSSQTLSLTCSFSGFSLTTSGMGVSWIRQPSGKGLEWLAHIYWDDDKRYNPSLKSRLTISKDTSRNQVFLKITSVDTADTATYYCAGCDSSGSFDYWGQGTTLTVSS
VL: DIQMTQTTSSLSASLGDRVTITCRASQDISNYLNWYQQKPDGTVKLLIYYRSRLHSGVPSRFSGSGSGPEYSLTISNLEQEDIATYFCQQGNTLPWTFGGGTKLEIKR
binding result [2]: no binding
binding result [3]: no binding

B8: mouse antibody F6B6 (antibody, V domains shown)
VH: QVQLKQSGPGLVQPSQSLSITCTVSGFSLTNYGVHWVRQSPGKGLEWLGVIWSDGSTDYDAAFISRLSISTDNSKSQVFFKMNSLQAADTAIYYCARKGDYDYDNYAMDYWGQGTSVTVSS
VL: DVVITQSPATLSVTPGDSVSLSCRASQSISNNLHWYQQKSHESPRLLIKYASQSISGIPSRFSGSGSGTDFTLSINSVETEDFGMYFCQQSNSWPLTFGAGTKLELK
notes: as for B3
binding result [4]: binds

B9: antibody F6B6 (murine chimeric anti-FGFR2 antibody) (antibody, human IgG1, kappa, V domains shown)
VH: QVQLKQSGPGLVQPSQSLSITCTVSGFSLTNYGVHWVRQSPGKGLEWLGVIWSDGSTDYDAAFISRLSISTDNSKSQVFFKMNSLQAADTAIYYCARKGDYDYDNYAMDYWGQGTSVTVSS
VL: DVVITQSPATLSVTPGDSVSLSCRASQSISNNLHWYQQKSHESPRLLIKYASQSISGIPSRFSGSGSGTDFTLSINSVETEDFGMYFCQQSNSWPLTFGAGTKLELKR
binding result [1]: no binding
binding result [2]: no binding
binding result [3]: no binding

B10: mouse antibody G11B8 (antibody, V domains shown)
VH: EVQLQQSGPELVKPGASVKIPCKASGYTFTDYNMDWVKQSHGKSLEWIGDINPKNGETFYNQKFKGKATLTVDRSSNTAYMELRSLTSEDTAVYFCAKRDLNWYFDYWGQGTTLTVSS
VL: DIQMTQSSSYLSVSLGGRVTITCKASDHINNWLAWYQQKPGNAPRLLISGATSLETGVPSRFSGSGSGKDYTLSITSLQTEDVATYYCQQYWSTPWTFGGGTKLEIK
notes: as for B3
binding result [4]: binds

B11: antibody G11B8 (murine chimeric anti-FGFR2 antibody) (antibody, human IgG1, kappa, V domains shown)
VH: EVQLQQSGPELVKPGASVKIPCKASGYTFTDYNMDWVKQSHGKSLEWIGDINPKNGETFYNQKFKGKATLTVDRSSNTAYMELRSLTSEDTAVYFCAKRDLNWYFDYWGQGTTLTVSS
VL: DIQMTQSSSYLSVSLGGRVTITCKASDHINNWLAWYQQKPGNAPRLLISGATSLETGVPSRFSGSGSGKDYTLSITSLQTEDVATYYCQQYWSTPWTFGGGTKLEIKR
binding result [1]: no binding
binding result [2]: no binding
binding result [3]: no binding

B12: mouse antibody H3F7-a (antibody, V domains shown)
VH: EVQLQQSGPELVKPGASVKIPCKASGYTFTDYNMDWVKQSHGKSLEWIGDINPKNGETFYNQKFKGKATLTVDRSSSTAYMELRSLTSEDTAVYFCAKRDLNWYFDYWGQGTTLTVSS
VL: DIQMTQSSSYLSVSLGGRVTITCKASDHINNWLAWYQQKPGNAPRLLISGATSLETGVPSRFSGSGSGKDYTLSITSLQTEDVATYYCQQYWSTPWTFGGGTKLEIK
notes: as for B3
binding result [4]: binds

B13: antibody H3F7-a (murine chimeric anti-FGFR2 antibody) (antibody, human IgG1, kappa, V domains shown)
VH: EVQLQQSGPELVKPGASVKIPCKASGYTFTDYNMDWVKQSHGKSLEWIGDINPKNGETFYNQKFKGKATLTVDRSSSTAYMELRSLTSEDTAVYFCAKRDLNWYFDYWGQGTTLTVSS
VL: DIQMTQSSSYLSVSLGGRVTITCKASDHINNWLAWYQQKPGNAPRLLISGATSLETGVPSRFSGSGSGKDYTLSITSLQTEDVATYYCQQYWSTPWTFGGGTKLEIKR
binding result [1]: no binding
binding result [2]: no binding
binding result [3]: no binding

B14: antibody A5H12 (murine chimeric anti-FGFR2 antibody) (antibody, human IgG1, kappa, V domains shown)
VH: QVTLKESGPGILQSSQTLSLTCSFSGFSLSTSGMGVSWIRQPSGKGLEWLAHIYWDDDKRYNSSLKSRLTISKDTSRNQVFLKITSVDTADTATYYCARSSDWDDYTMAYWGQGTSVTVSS
VL: DIVLTQSPASLAVSLGQRATISCRASESIDDFGISFMHWYQQKPGQPPKLLIYRASNLESGIPARFSGSGSRADFTLTINPVETDDVATYYCQQSNKDPPTFGAGTNLELKR
binding result [2]: no binding
binding result [3]: no binding

B15: mouse antibody A5H12 (antibody, V domains shown)
VH: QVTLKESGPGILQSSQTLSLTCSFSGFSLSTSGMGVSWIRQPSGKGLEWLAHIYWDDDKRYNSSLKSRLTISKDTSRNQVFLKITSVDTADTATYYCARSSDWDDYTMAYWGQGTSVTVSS
VL: DIVLTQSPASLAVSLGQRATISCRASESIDDFGISFMHWYQQKPGQPPKLLIYRASNLESGIPARFSGSGSRADFTLTINPVETDDVATYYCQQSNKDPPTFGAGTNLELK
notes: as for B3
binding result [4]: binds

B16: mouse antibody A1B2 (antibody, V domains shown)
VH: EVQLQQSGAELVRPGASVKLSCTASGFNIKDYYMHWVKQRPEQGLEWIGRIDPEDGDTEYAPKFQGKATMTADTSSNTAYLQLSSLTSEDTAVYYCTTYYYVSTYEDYWGQGTTLTVSS
VL: QIVLTQSPAIMSASLGEEITLTCSASSSVSHMHWYQQKSGTSPKLLIYSTSNLASGVPSRFSGSGSGTFYSLTISSVEAEDAADYYCHHWSSWTFGGGTKLEIK
notes: as for B3
binding result [4]: binds

B17: antibody A1B2 (murine chimeric anti-FGFR2 antibody) (antibody, human IgG1, kappa, V domains shown)
VH: EVQLQQSGAELVRPGASVKLSCTASGFNIKDYYMHWVKQRPEQGLEWIGRIDPEDGDTEYAPKFQGKATMTADTSSNTAYLQLSSLTSEDTAVYYCTTYYYVSTYEDYWGQGTTLTVSS
VL: QIVLTQSPAIMSASLGEEITLTCSASSSVSHMHWYQQKSGTSPKLLIYSTSNLASGVPSRFSGSGSGTFYSLTISSVEAEDAADYYCHHWSSWTFGGGTKLEIKR
binding result [1]: no binding
binding result [2]: no binding
binding result [3]: no binding
